Entries after “also recorded” stand apart in the source; their conditions may differ. Read-outs that look alike come from different tables or passages of the source.
Assays:
[1] = test system: C2C12 myotubes; test: Dj1 release from muscle cells into culture medium; assay type: cell-based, mouse; conditions: for muscle cell release of Dj1: in vitro (C2C12 myotubes) and ex vivo muscle; for protein level of Dj1 in the media: C2C12 myotubes with or without CCCP, Tg
Description: Seeded cells were cultured in 6-well plates for 24 hours prior to transfection. Transfections were performed using Lipofectamine 2000 and PLUS reagent according to manufacturer instructions (Invitrogen, Carlsbad, CA). Human HepG2 cells were cultured in DMEM/low media containing 10% fetal bovine serum with penicillin/streptomycin. Mouse AML12 cells were maintained in DMEM/F12, ITS supplement (Gibco, USA), 40 ng/ml dexamethasone, and 10% fetal bovine serum with penicillin/streptomycin.
An adenovirus encoding mouse Dj1 was generated using the ViraPower Adenoviral Expression System (Invitrogen) according to manufacturer instructions. […] Entry clones were obtained by recombination of the purified DNA fragment with the pDONR221 vector using Gateway BP clonase II. Mouse Dj1 insert was transferred from the entry clones into the pAd/CMV/V5-DEST vector (Invitrogen) using the Gateway LR Clonase II enzyme mix. The recombinant adenoviral purified plasmid was used to generate adenoviral particles according to the manufacturer's instructions (Invitrogen). Adenoviral titer was determined using the AdenoX Rapid Titer Kit (Clontech).
(§1) Mouse tissue and cell samples were pulverized in liquid nitrogen and homogenized in RIPA lysis buffer containing complete EDTA-Free protease (Roche) and Phosphatase Inhibitor Cocktail 2 (Sigma-Aldrich, St. Louis, MO). All lysates were centrifuged, clarified, and resolved by SDS-PAGE. […] Densitometric analyses were performed using BioRad Quantity One image software (Bio-Rad, Hercules, CA).
(§2) Mouse serum Dj1 and CK were measured by mouse Park7/DJ-1 DuoSet ELISA (DY8136, R&D systems) and mouse CKMB/Creatine Kinase MB ELISA Kit (LS-F5745, LSBio) respectively. Mouse Serum AST and ALT were measured by AST activity assay kit (Sigma, MAK055) and ALT activity assay kit (Sigma, MAK052) respectively.
Strenuous exercise increases the endoplasmic reticulum (ER) stress, which at an excessive level can lead to muscle damage (12). […] To determine the mechanisms that drive skeletal muscle releases of Dj1, ER stress markers were examined in skeletal muscles of the three different mouse models described above. […] To further validate muscle cells release of Dj1, in vitro studies were assessed.
(§3) Extracellular vesicles are cell-derived membranous structures including exosomes and microvesicles bodies, which are enriched with proteins, lipids, DNA, and RNA (14). To examine whether Dj1 is released through the extracellular vesicle system, Dj1 levels were determined in the culture media of C2C12 myotubes that were treated with or without CCCP, Tg, exosome generation inhibitor GW4869, or exocytosis inhibitor Exo1. […] To visualize the release of Dj1 from muscle cells, time-lapse imaging was performed on C2C12 myocytes transfected with Dj1-GFP. […] To further determine which types of extracellular vesicles were enriched with Dj1, microvesicle bodies (MVBs) and exosomes from C2C12 culture media and CTX-treated mouse plasma were separated by differential centrifugation.

[2] = test system: C2C12 myocytes; test: Time-lapse imaging of Dj1-GFP transfected C2C12 myocytes; assay type: cell-based, mouse
Description: Before image analysis, raw .czi files were automatically processed into deconvoluted Airyscan images using Zen software. Time-lapse images were acquired at approximately 1 frame/second.
as §3

[3] = test system: cleaved caspase 3; conditions: C2C12 myocytes
Description: as §1

[4] = test system: C57BL/6J mice; test: Plasma Dj1 after intramuscular CTX injection; assay type: in vivo, mouse; conditions: 2 days post intramuscular administration
Description: as §2
Cardiotoxin (CTX) induces skeletal muscle injury and regeneration. To further validate the effect of muscle injury on circulating Dj1, C57BL/6J mice were injected intramuscularly with CTX, and plasma Dj1 levels were measured 2 days post-administration.

[5] = test system: NASH diet-fed mice; test: tDj1 administration in NASH diet-fed mice
Description: Animals were weaned 21 days after birth and had free access to food and water and were housed on 12 h light-dark cycle. C57BL/6J males were introduced to a normal diet (NC, Research Diets D15100601) or high-fat diet (HFD, Research Diets D12331), and maintained on a diet for the indicated time. […] NASH model mice were fed for up to 28 weeks with the NASH diet (Envigo, TD.120528) and 42% fructose (Sigma, F0127) in the water (1,2). […] Mice were raised in microisolator cages with a 12 h: 12 h light: dark cycle. All procedures were performed in accordance with the Guide for Care and Use of Laboratory Animals of the National Institutes of Health, and were approved by the Animal Subjects Committee of the University of California, Los Angeles.

[6] = test system: JNK; test: Anisomycin-induced JNK phosphorylation in AML12 cells; assay type: cell-based; conditions: mouse AML12 liver cells
From the text: (§4) As described above, Dj1 administration stimulates AMPK phosphorylation in the liver cells. However, elevated AMPK phosphorylation in vivo was not observed (data not shown). Numerous studies have reported that the c-Jun N terminal kinase (JNK) is critical to the development of steatosis and chronic liver injury in NAFLD (22-25). […] However, not all MAPK pathways were activated. For example, phosphorylation of p42 was not altered by tDj1 treatment (FIG. 6O). Both rDj1 and tDj1 suppressed TNFα and Anisomycin-induced JNK (p54 and p46) phosphorylation in human HepG2 and mouse AML12 liver cells, respectively (FIGS. 6C-6D).

[7] = test system: HFD-fed mice; test: rDj1 or tDj1 intravenous every other day for 14 days in HFD-fed mice; assay type: in vivo, mouse
Description: C57BL/10cSn-Dmd^mdx/J (001801, mdx) and C57BL/10ScSnJ (000476, WT) mice were ordered directly from The Jackson Laboratory. Different ages of mdx and WT mice were obtained. Animals were weaned 21 days after birth and had free access to food and water and were housed on 12 h light-dark cycle. C57BL/6J males were introduced to a normal diet (NC, Research Diets D15100601) or high-fat diet (HFD, Research Diets D12331), and maintained on a diet for the indicated time. The HFD diet derives 58% of its kilocalories (kcal) from fat (soybean and coconut oil), 25.5% from carbohydrates (sucrose and maltodextrin), and 16.4% from protein (casein). NASH model mice were fed for up to 28 weeks with the NASH diet (Envigo, TD.120528) and 42% fructose (Sigma, F0127) in the water (1,2). The NASH diet is composed of 405.36 g/Kg sucrose and 12.5 g/Kg cholesterol. Recombinant mouse Dj1 protein (Novus, NBP2-59523) or truncated mouse Dj1 (tDj1, GenScript) protein was intravenously injected every day for 5 days or every other day for 2 weeks. Skeletal muscle-specific Park7 knockout mice were generated by crossing Park7 flox mice with Myl1-cre mice (JAX, #024713). Mice were raised in microisolator cages with a 12 h: 12 h light: dark cycle. All procedures were performed in accordance with the Guide for Care and Use of Laboratory Animals of the National Institutes of Health, and were approved by the Animal Subjects Committee of the University of California, Los Angeles.
Cryosections (10-μm thick transverse sections of frozen muscle cut in a cryostat (Leica) at −20° C.) were subjected to hematoxylin & eosin (H&E) staining (10, 54). Liver tissues were fixed in phosphate-buffered 10% formalin and embedded in paraffin wax. Sections were cut and stained with H&E.
as §2
Plasma and liver NEFA, Cholesterol, and Triglyceride were analyzed by their respective kits (FUJIFILM Wako Diagnostics)
About 80 mg of liver samples were homogenized and sonicated in PBS (pH 7.4) for lipid extraction. An internal standard mixture (ISTD) and CHCl3:methanol (2:1) were added to the samples before being vortexed, mixed, sonicated, and centrifuged. The supernatant containing the lipid was removed and dried, the lipids were resuspended in ethanol and then sonicated.
(§5) Dj1 is a highly conserved protein that is ubiquitously expressed in most mammalian tissues. It belongs to the Dj1/ThiJ/PfpI family chaperones, and its expression is induced by oxidative stress (20,21). To determine whether the PfpI domain of Dj1 exerts a similar role as the full-length Dj1 protein (rDj1) in liver cells, truncated Dj1 (tDj1) comprising of only the PfpI domain was purified (FIG. 5O). HFD-fed mice were intravenous injected with rDj1 or tDj1 every other day for 14 days.

[8] = test system: ASK1; test: ASK1 phosphorylation immunoblot, in vitro and in liver of HFD-fed mice; design: species or system mouse; conditions: in vitro and in vivo; liver of HFD-fed WT mice
From the text: A wide variety of mechanisms activate the JNK pathway. […] Moreover, ASK1 is activated by various stresses, including oxidative stress, ER stress, calcium overload, and receptor-mediated inflammatory signals such as TNFα and lipopolysaccharide (LPS) (26,27). rDj1 administration suppressed both baseline and TNFα-induced ROS levels in HepG2 cells, which may contribute to reducing liver inflammation (FIG. 6F).

[9] = test system: JNK; test: JNK phosphorylation immunoblot in liver of HFD-fed mice; assay type: in vivo, mouse
From the text: as §4

[10] = test system: AML12 cells; test: TG and NEFA content in palmitate acid-treated AML12 cells; assay type: cell-based, mouse
Description: Mouse myoblast cells (C2C12) were maintained in high glucose DMEM/high, 10% fetal bovine serum with penicillin/streptomycin. pRK5-Dj1-HA plasmid was purchased from Addgene (#29396). Seeded cells were cultured in 6-well plates for 24 hours prior to transfection. Transfections were performed using Lipofectamine 2000 and PLUS reagent according to manufacturer instructions (Invitrogen, Carlsbad, CA). Human HepG2 cells were cultured in DMEM/low media containing 10% fetal bovine serum with penicillin/streptomycin. Mouse AML12 cells were maintained in DMEM/F12, ITS supplement (Gibco, USA), 40 ng/ml dexamethasone, and 10% fetal bovine serum with penicillin/streptomycin. For in vitro experiments, HepG2 cells were treated with or without recombinant human Dj1 protein (Novus, NBC1-18334) in serum-free media containing 25 mM glucose, 200 μM palmitic acid, and 0.25% bovine serum albumin for an indicated time.
as §5

[11] = test system: p42; test: p42 phosphorylation immunoblot in liver of HFD-fed mice; assay type: in vivo, mouse
From the text: as §4

[12] = test system: p38; test: p38 phosphorylation immunoblot in liver of HFD-fed mice; assay type: in vivo, mouse
From the text: as §4

Molecule: C/C=C(/C)C(=O)O[C@H]1C(C)=C2[C@H]([C@@H]1OC(=O)CCCCCCC)[C@@](C)(OC(C)=O)C[C@H](OC(=O)CCC)[C@@]1(O)[C@H]2OC(=O)[C@@]1(C)O [Thapsigargin]
- muscle cell release of Dj1 [1]: release Dj1
- budding of vesicles from cells ([2]; Dj1-GFP transfected C2C12 myocytes, time-lapse imaging): Robust budding of vesicles

Molecule: carbonyl cyanide m-chlorophenyl hydrazine [CCCP]
- Dj1 levels in the culture medium ([1]; C2C12 myocytes / myotubes): elevated
- HA-Dj1 levels in the media ([1]; C2C12 myocytes transfected with HA-tagged Dj1): elevated
- muscle cell release of Dj1 [1]: release Dj1
- budding of vesicles from cells [2]: Robust budding of vesicles
- protein level of cleaved caspase 3 [3]: did not alter

Molecule: Cardiotoxin [CTX]
- Dj1 in the plasma [4]: increase

Molecule: COC(=O)c1ccccc1NC(=O)c1ccc(F)cc1 [Exo1]
- protein level of Dj1 in the media [1]: significantly reduced

Molecule: O=C(/C=C/c1ccc(/C=C/C(=O)Nc2ccc(C3=NCCN3)cc2)cc1)Nc1ccc(C2=NCCN2)cc1 [GW4869]
- protein level of Dj1 in the media [1]: significantly reduced

B1: tDj1: truncated mouse Dj1 comprising only the PfpI domain, residues 32-173 per b12, SEQ ID NO: 3 (GenScript) (protein, listed as Mus musculus)
chain: KVTVAGLAGKDPVQCSRDVMICPDTSLEDAKTQGPYDVVVLPGGNLGAQNLSESPMVKEILKEQESRKGLIAAICAGPTALLAHEVGFGCKVTTHPLAKDKMMNGSHYSYSESRVEKDGLILTSRGPGTSFEFALAIVE
- TG levels in the liver ([5]; NASH diet-fed mice): did not considerably reduce
- fibrosis scores ([5]; NASH diet-fed mice): significantly reduced
- hepatic apoptosis (TUNEL assay) ([5]; NASH diet-fed mice): suppressed
- liver ALT activity ([5]; NASH diet-fed mice): robustly reduced
- total cholesterol level in the liver ([5]; NASH diet-fed mice): significantly suppressed
- inflammatory gene expression ([5]; liver of NASH diet-fed mice): significantly reduced
- liver fibrosis gene expression ([5]; liver of NASH diet-fed mice): significantly reduced
- protein levels of apoptosis markers (cleaved caspase 3, cleaved caspase 8, cleaved caspase 9, cleaved PARP) ([5]; liver of NASH diet-fed mice): decreased
- body weight ([5]; mice on NASH diet for 28 weeks): significantly reduced
- glucose tolerance ([5]; mice on NASH diet for 28 weeks): improved
- insulin tolerance ([5]; mice on NASH diet for 28 weeks): improved
- Anisomycin-induced JNK (p54 and p46) phosphorylation [6]: suppressed; also recorded: inhibits
- level of TG in the liver [7]: significantly reduced
- liver histology, lipid accumulation [7]: less lipid accumulation
- plasma ALT levels [7]: reducing
- plasma AST levels [7]: reducing
- phosphorylation of apoptosis signal-regulating kinase 1 (ASK1) [8]: reduced; also recorded: inhibits
- JNK (p46 subunit) phosphorylation [9]: significantly reduced
- TG levels [10]: reduced
- phosphorylation of p42 [11]: not altered
- p38 phosphorylation [12]: decreased

— patent publication US20250339501A1, “COMPOSITIONS AND METHODS FOR TREATING METABOLIC DISEASE” (The Regents of the University of California, priority 2021, published 2025)
